Results taken from publication PMC7979498 (2022).

What was measured:
ROS1 = target: T1, ROS1 (Homo sapiens, UniProt P08922); assay: saturation binding assay
T1 chain: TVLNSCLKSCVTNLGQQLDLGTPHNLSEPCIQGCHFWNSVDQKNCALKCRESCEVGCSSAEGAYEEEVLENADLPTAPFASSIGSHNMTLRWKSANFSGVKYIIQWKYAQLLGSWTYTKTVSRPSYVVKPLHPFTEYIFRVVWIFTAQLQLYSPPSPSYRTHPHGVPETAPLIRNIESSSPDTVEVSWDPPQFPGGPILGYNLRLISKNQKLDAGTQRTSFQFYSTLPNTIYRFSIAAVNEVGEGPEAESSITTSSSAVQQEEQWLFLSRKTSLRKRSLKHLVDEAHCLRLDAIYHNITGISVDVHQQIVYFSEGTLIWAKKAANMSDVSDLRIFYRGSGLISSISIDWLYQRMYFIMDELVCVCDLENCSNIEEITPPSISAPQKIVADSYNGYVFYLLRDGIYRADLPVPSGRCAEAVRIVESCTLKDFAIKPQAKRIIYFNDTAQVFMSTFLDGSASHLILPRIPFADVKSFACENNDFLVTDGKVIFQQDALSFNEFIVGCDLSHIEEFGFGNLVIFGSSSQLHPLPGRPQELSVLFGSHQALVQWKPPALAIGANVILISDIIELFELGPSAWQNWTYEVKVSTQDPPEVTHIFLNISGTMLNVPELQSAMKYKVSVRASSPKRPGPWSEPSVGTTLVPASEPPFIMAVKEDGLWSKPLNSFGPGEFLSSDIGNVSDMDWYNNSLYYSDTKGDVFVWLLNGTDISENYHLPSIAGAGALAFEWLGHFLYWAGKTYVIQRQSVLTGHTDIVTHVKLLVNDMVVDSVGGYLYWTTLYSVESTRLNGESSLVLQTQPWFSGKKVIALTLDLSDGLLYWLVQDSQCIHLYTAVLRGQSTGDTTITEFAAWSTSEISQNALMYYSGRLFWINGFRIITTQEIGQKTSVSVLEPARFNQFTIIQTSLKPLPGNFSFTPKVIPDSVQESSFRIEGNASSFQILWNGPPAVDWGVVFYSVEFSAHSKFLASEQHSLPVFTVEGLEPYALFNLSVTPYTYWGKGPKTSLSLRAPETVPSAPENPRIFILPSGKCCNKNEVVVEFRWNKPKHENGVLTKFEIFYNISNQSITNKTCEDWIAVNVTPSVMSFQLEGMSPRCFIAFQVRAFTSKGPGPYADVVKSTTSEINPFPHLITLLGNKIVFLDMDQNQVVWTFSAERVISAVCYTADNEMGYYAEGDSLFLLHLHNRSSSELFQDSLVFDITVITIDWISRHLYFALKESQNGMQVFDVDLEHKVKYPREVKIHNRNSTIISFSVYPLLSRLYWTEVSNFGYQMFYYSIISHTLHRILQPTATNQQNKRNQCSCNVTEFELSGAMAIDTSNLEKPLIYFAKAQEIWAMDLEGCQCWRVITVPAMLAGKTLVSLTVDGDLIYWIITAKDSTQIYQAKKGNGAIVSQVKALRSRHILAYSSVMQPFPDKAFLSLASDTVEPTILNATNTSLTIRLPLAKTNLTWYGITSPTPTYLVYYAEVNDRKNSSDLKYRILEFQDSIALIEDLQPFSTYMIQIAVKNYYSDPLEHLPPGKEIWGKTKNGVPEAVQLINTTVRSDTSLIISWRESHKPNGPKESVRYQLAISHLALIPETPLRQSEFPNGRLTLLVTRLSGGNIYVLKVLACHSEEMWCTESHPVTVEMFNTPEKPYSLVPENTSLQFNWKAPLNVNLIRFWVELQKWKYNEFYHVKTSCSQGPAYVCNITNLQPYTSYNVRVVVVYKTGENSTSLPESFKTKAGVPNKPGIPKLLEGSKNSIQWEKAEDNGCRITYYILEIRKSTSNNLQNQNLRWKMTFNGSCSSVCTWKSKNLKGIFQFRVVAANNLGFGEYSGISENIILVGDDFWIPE

ROS1 ECD = target: T2, ROS1 ECD (Homo sapiens, UniProt P08922); assay: saturation binding assay
T2 chain: T1 chain

B1: RNase7 (protein)
chain: KPKGMTSSQWFKIQHMQPSPQACNSAMKNINKHTKRCKDLNTFLHEPFSSVAATCQTPKIACKNGDKNCHQSHGAVSLTMCKLTSGKHPNCRYKEKRQNKSYVVACKPPQKKDSQQFHLVPVHLDRVL
- Kd (ROS1): 33.5 nM
- Kd (ROS1 ECD): 28.5 nM
